In paper PMC10617769, “Dietary potassium stimulates Ppp1Ca-Ppp1r1a dephosphorylation of kidney NaCl cotransporter and reduces blood pressure” (The Journal of Clinical Investigation, 2023):

Biological target: T1, recombinant α catalytic subunit of rabbit protein phosphatase 1 (Ppp1ca) (rabbit, UniProt P62139 1-330)
T1 construct: α catalytic subunit of protein phosphatase 1 (Ppp1ca), rabbit, recombinant; also called PP1A; Protein Phosphatase 1 Catalytic Subunit, α-isoform; source: bought: MilliporeSigma, P7937 (recombinant)
T1 sequence (P62139 whole entry, canonical isoform): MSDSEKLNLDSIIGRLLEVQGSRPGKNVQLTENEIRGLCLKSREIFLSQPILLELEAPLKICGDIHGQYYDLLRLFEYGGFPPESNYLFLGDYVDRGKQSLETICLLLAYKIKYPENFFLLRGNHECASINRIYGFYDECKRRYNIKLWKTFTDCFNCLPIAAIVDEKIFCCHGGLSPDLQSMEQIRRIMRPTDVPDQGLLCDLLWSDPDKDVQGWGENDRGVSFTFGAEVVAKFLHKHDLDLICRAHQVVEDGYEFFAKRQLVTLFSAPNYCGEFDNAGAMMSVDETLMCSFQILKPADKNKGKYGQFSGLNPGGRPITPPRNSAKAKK
Assay: pull-down; GST-(N) NCC or GST alone on glutathione-agarose beads with 2–10 μg recombinant phosphatase; 12- to 18-hour incubation in PBS with 0.5 mM TCEP at 4°C; bound protein detected by Western blotting
Conditions: both partners purified

binding result: binds
B1: GST fusion protein of the cytoplasmic amino terminus of rat NCC (amino acids 1-133) (domain or fragment, UniProt P55018 1-133, looked up)
chain: MAELPVTEMPGDALCSGRFTISTLLGGDEPPPAACDNSQPSHLTHGSTLYLRTFGYNTIDVVPAYEHYANSALPGEPRKVRPTLADLHSFLKQEGSHLHALAFDGRPGHELTDGLVEDETGANSEKSPGEPVR
notes: thiazide-sensitive sodium chloride cotransporter NCC (SLC12A3), rat, NP_062218, cytoplasmic amino terminus, amino acids 1-133; cloned into pGEX4T1; also called GST-NCC-(N); GST-(N) NCC; source: E. coli C43 (DE3), recovered by glutathione chromatography, kept on beads
